Assays:
[1] = biological target: monoclonal human IgG3 (Homo sapiens, UniProt P01860); assay: Cleavage of human IgG subclasses, SDS-PAGE; type: biochemical; conditions: 18 h, 37° C., reducing SDS-PAGE
Method: (§1) (A) rIgdEagalactiae was incubated with polyclonal IgG of six different species for 18 h at 37° C. and analyzed by SDS-PAGE under reducing conditions. Degradation products are indicated by asterisks (*). Images of different gels have been used to create the figure. (B) rIgdEagalactiae was incubated with human or bovine serum for 18 h in 37° C. and analyzed by SDS-PAGE under reducing conditions. Degradation products are indicated by asterisks (*). (C) Western Blot with crude extracts of rIgdEagalactiae incubated with human and porcine serum for 18 h in 37° C. Membrane was treated with antibodies against human and porcine polyclonal IgG respectively. Degradation products are indicated by asterisks (*). (D) rIgdEagalactiae was incubated with subclasses of human IgG as well as human IgA and IgM for 18 h in 37° C. and analyzed by SDS-PAGE under reducing conditions. Degradation products are indicated by asterisks (*). Images of different gels have been used to create the figure.

[2] = biological target: monoclonal human IgG4 (Homo sapiens, UniProt P01861); assay: Cleavage of human IgG subclasses, SDS-PAGE; type: biochemical; conditions: 18 h, 37° C., reducing SDS-PAGE
monoclonal human IgG4, sequence (P01861 1-327 isoform P01861-1): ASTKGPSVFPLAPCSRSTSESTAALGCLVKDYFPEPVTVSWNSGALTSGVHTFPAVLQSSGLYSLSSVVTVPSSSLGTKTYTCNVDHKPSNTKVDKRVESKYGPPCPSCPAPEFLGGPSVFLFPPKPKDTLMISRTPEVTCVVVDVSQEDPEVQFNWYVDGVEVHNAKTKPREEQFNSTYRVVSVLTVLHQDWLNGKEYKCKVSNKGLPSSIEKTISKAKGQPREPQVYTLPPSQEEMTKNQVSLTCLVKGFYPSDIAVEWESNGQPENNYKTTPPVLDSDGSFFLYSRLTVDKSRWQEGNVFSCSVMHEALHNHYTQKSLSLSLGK
Method: as §1

[3] = tested on: monoclonal human IgG2; assay: Cleavage of human IgG subclasses, SDS-PAGE; type: biochemical; conditions: 18 h, 37° C., reducing SDS-PAGE
Method: as §1

[4] = tested on: monoclonal human IgG1; assay: Cleavage of human IgG subclasses, SDS-PAGE; type: biochemical; conditions: 18 h, 37° C., reducing SDS-PAGE
Method: as §1

[5] = tested on: porcine IgG; assay: IgG cleavage by IgdE, SDS-PAGE; type: biochemical, pig; conditions: purified polyclonal IgG, reducing SDS-PAGE
Method: (A) Schematic illustration of IgdE and the different rIgdE constructs with potential active site residues substitutions and the C-terminal truncation variant. The secretion signal peptide (residues 1-37) is marked in light grey, the transglutaminase domain is boxed and the potential active site residues and substitutions are indicated. (B) 3.3 μM porcine IgG was incubated for 16 h at 37° C. with soluble fractions of E. coli cells expressing different rIgdE constructs. The reaction was analyzed SDS-PAGE under reducing conditions. […] The weak protein band of 37 kDa is a contaminant present in lysate preparation and not related to IgdE activity.
(§2) 0.5 mg/ml of porcine IgG (Sigma) in PBS or of other species (human, goat, cow, horse and mouse; all Sigma) were incubated with either crude extracts of induced E. coli carrying S. suis IgdE constructs mentioned above or 10 nM purified rIgdE for 16 h at 37° C. prior subjection to SDS-PAGE under either reducing or non-reducing conditions.
(§3) Samples for SDS-PAGE were prepared with either reducing or non-reducing sample buffer and heated to 95° C. for 5 min. 12% SDS-PAGE was either stained with Coomassie blue (Sigma), Coomassie Fluor™ Orange Protein Gel Stain (Invitrogen) or blotted to Hybond-P PVDF membrane (GE Healthcare) for western blot analyses. Membranes were blocked with 5% dry milk powder in 0.1% PBS-Tween, followed by incubation with horse-radish peroxidase conjugated antibodies. Goat anti-pig IgG-HRP (Thermo Scientific) and goat anti-porcine IgM-HRP (Thermo Scientific) was diluted 1:25′000 and goat anti-porcine IgA-HRP (Thermo Scientific) was diluted 1:12′500. Membranes were thoroughly washed with 0.1% PBS-Tween prior to development with Amersham ECL Select Western blotting detection reagent (GE Healthcare) according to manufactures instruction and pictured by LAS4000 imaging system (Fujifilm).

[6] = biological target: T1, human serum IgG1 (Homo sapiens, UniProt P01857); assay: Degradation of human serum IgG1, non-reducing Western blot; type: biochemical; conditions: 18 h at 37° C.
T1 construct: Human serum and monoclonal human IgG1 were incubated in presence (+) or absence (−) of rIgdEagalactiae; from tissue; host or cells: human serum
T1 sequence (P01857 1-330 isoform P01857-1): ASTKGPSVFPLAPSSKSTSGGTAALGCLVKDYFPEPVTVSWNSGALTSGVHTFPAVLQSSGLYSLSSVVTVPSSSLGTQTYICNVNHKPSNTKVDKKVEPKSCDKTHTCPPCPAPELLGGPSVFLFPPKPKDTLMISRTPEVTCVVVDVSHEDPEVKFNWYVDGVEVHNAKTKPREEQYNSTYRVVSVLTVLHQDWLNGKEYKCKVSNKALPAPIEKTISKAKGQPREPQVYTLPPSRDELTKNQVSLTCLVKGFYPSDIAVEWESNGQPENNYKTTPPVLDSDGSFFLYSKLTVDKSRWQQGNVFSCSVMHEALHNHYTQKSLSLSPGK
Method: Human serum and monoclonal human IgG1 were incubated in presence (+) or absence (−) of rIgdEagalactiae for 18 h at 37° C. and analyzed by Western blot under non-reducing conditions with a human IgG-specific antibody.

[7] = tested on: horse IgG; assay: IgG cleavage by IgdE, SDS-PAGE; type: biochemical; conditions: purified polyclonal IgG, reducing SDS-PAGE
Method: as §2, §3

[8] = tested on: cow IgG; assay: IgG cleavage by IgdE, SDS-PAGE; type: biochemical; conditions: purified polyclonal IgG, reducing SDS-PAGE
Method: as §2, §3

[9] = tested on: mouse IgG; assay: IgG cleavage by IgdE, SDS-PAGE; type: biochemical; conditions: purified polyclonal IgG, reducing SDS-PAGE
Method: as §2, §3

[10] = tested on: goat IgG; assay: IgG cleavage by IgdE, SDS-PAGE; type: biochemical; conditions: purified polyclonal IgG, reducing SDS-PAGE
Method: as §2, §3

[11] = tested on: IgG in human serum; assay: Ig cleavage in human serum, anti-IgG Western blot; type: biochemical
Method: as §1

[12] = tested on: IgG; assay: IgG degrading cysteine protease activity: specificity as summarised; type: biochemical; conditions: summary statement
Source text: Typically, polypeptides for use in accordance with the invention display immunoglobulin cysteine protease activity, and in particular IgG degrading cysteine protease activity. Preferably, the polypeptide cleaves IgG in the hinge region and more particularly in the hinge region of the heavy chain. Preferably, cleavage results in production of Fc and Fab fragments of IgG. Preferably the activity is specific for IgG. The IgG degrading cysteine protease activity may be determined by means of a suitable assay. For example, a test polypeptide may be incubated with IgG at a suitable temperature, such as 37° C. The starting materials and the reaction products may then be analysed by SDS PAGE to determine whether the desired IgG cleavage product is present. Typically this cleavage product is a 32 kDa fragment. Typically there is no further degradation of IgG after this first cleavage. The cleavage product may be subjected to N-terminal sequencing to verify that cleavage has occurred in the hinge region of IgG.
The IgG degrading cysteine protease activity of the polypeptides is generally IgG-specific in that the polypeptides may not degrade other classes of Ig, namely IgM, and IgA, when incubated with these immunoglobulins under conditions that permit cleavage of IgG.

[13] = tested on: human IgG; assay: IgG cleavage by IgdE, SDS-PAGE; type: biochemical; conditions: purified polyclonal IgG, reducing SDS-PAGE
Method: as §1, §2, §3

[14] = tested on: IgG in equine serum; assay: Ig cleavage in equine serum, anti-IgG Western blot; type: biochemical, horse
[15] = tested on: rat IgG; assay: IgG cleavage by IgdE, SDS-PAGE; type: biochemical; conditions: purified polyclonal IgG
[16] = tested on: rabbit IgG; assay: IgG cleavage by IgdE, SDS-PAGE; type: biochemical; conditions: purified polyclonal IgG
[17] = tested on: equine IgG5; assay: Cleavage of recombinant equine IgG subtypes, SDS-PAGE; type: biochemical, horse; conditions: 0.6 μM, 16 h at 37° C., reducing SDS-PAGE
Method: (§4) 0.6 μM recombinant equine IgG subtypes or serum IgG were incubated for 16 h at 37° C. with (+) or without (−) the soluble fraction of E. coli cells expressing rIgdEequi. Reactions were analyzed by SDS-PAGE under reducing conditions. […] SDS-PAGE was either stained with Coomassie Fluor Orange Protein Gel Stain (A) or subjected to Western blot (B) analyses with Rabbit Anti-Horse IgG H&L (HRP) ab6921.

[18] = tested on: equine IgG2; assay: as above; type: biochemical, horse; conditions: 0.6 μM, 16 h at 37° C., reducing SDS-PAGE
Method: as §4

[19] = tested on: equine IgG1; assay: as above; type: biochemical, horse; conditions: 0.6 μM, 16 h at 37° C., reducing SDS-PAGE
Method: as §4

[20] = tested on: equine IgG4; assay: as above; type: biochemical, horse; conditions: 0.6 μM, 16 h at 37° C., reducing SDS-PAGE
Method: as §4

[21] = tested on: equine IgG3; assay: as above; type: biochemical, horse; conditions: 0.6 μM, 16 h at 37° C., reducing SDS-PAGE
Method: as §4

[22] = tested on: equine IgG7; assay: as above; type: biochemical, horse; conditions: 0.6 μM, 16 h at 37° C., reducing SDS-PAGE
Method: as §4

[23] = tested on: equine IgG6; assay: as above; type: biochemical, horse; conditions: 0.6 μM, 16 h at 37° C., reducing SDS-PAGE
Method: as §4

monoclonal human IgG3, sequence (P01860 1-377 isoform P01860-1): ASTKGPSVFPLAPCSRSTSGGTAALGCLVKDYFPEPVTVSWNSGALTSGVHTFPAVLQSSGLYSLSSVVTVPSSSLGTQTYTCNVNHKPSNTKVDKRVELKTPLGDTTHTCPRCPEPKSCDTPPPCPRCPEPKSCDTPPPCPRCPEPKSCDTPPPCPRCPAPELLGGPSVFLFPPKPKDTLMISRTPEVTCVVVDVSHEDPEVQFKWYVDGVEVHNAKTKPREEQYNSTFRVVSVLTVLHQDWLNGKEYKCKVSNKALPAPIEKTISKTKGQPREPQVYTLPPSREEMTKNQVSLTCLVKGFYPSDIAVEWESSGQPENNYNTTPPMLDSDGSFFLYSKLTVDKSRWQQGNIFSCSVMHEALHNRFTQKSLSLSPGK

B1: IgdEagalactiae: IgdE isolated from S. agalactiae strain CCUG4208, SEQ ID NO: 3 (protein, listed as Streptococcus agalactiae)
chain: NQNNIQETNLVEKNSEDKFIQELNRYKTEIPNFKGFNVWILGDKGYYKNLINLEEIKNIQATLKKERNEEYVFVKLNGKIAHDTTVFLMNKKHKLLKNIEEFKTITQKRLTERGKFPYDTVHSTFEIKDENFIMERLKSSGLSMGKPVDYMGVNGIPIYTKTLSIDNKFAFENNSKDSSYSSNINISEDKIKENDQKILDLIVKSGANNQNLTDEEKVIAFTKYIGEITNYDNEAYRARNVDTEYYRASDLFSVTERKLAMCVGYSVTAARAFNIMGIPSYVVSGKSPQGISHAAVRAYYNRSWHIIDITASTYWKNGNYKTTYSDFIKEYCIDGYDVYDPAKTNNRFKVKYMESNEAFENWIHNNGSKSMLFINESAALKDKKPKDDFVPVTEKEKNELIDKYKKLLSQIPENTQNPGEKNIRDYLKNEYEEILKKDNLFEHEHAEFKESLNLNESFYLQLKKEEKKPSDNLKKEEKPRENSVKERETPAENNDFVSVTEKNNLIDKYKELLSKIPENTQNPGEKNIRNYLEKEYEELLQKDKLFKHEYTEFTKSLNLNETFYSQLKEGEMKLSENPEKGETNTN
Question: Which results are given for B1?
Answer: cleavage of monoclonal human IgG3 [1]: No degradation product was observed; cleavage of monoclonal human IgG4 [2]: No degradation product was observed; cleavage of monoclonal human IgG2 [3]: No degradation product was observed; cleavage of monoclonal human IgG1 kappa (32 kDa degradation product) [4]: cleaved; cleavage of monoclonal human IgG1 lambda (32 kDa degradation product) [4]: cleaved; cleavage of polyclonal porcine IgG (32 kDa degradation product) [5]: No degradation product was observed; degradation of human serum IgG1 [6]: degrades human serum IgG1 completely to single cleaved IgG1; cleavage of polyclonal horse IgG [7]: No degradation product was observed; cleavage of polyclonal cow IgG [8]: No degradation product was observed; cleavage of polyclonal mouse IgG [9]: No degradation product was observed; cleavage of polyclonal goat IgG [10]: No degradation product was observed; cleavage of IgG in human serum [11]: cleaved IgG in human serum; immunoglobulin specificity of the IgG degrading cysteine protease activity [12]: specific for human IgG, and specifically human IgG1; cleavage of polyclonal human IgG (32 kDa degradation product) [13]: cleaved

B2: IgdEequi: IgdE isolated from S. equi strain ssp zooepidemicus #1, SEQ ID NO: 7 (protein, listed as Streptococcus equi)
chain: MEAWKHGSMEAWKHGSMEAWKHGRTLCKGLLLGLACGAISMSLVVKSTIVVADDVRLSEQSTVILDNTVSNLISEVKDELAKNHQDALEIYILGEGSPKYSGVSPDRLGDYIKDYKPVRLNGKVIHGRAFFMMKKEDQLISTKEEYDRIIAERFSNLEKFDYPTIHYTFNAELKDKYPYLSLILKASGLSLSDSINLGSTLGINGVTIHTQHLRIDNQFAYRYNGEDYKQDSHITFDRFKKNDDKLKELIATSGANQEGLTDAQRVKAYVLYMANHVDYDWDATRYNPDYLIFCQASDLFALTERNKAMCIGFSTAAARGLNLLGIPSYVTYGKNRDGVAHATIRAFYDKKWRTLDVTGVGRGKYTEEHYDNLNTHDYKIFDLTKETNVDLDRGYMEIYKDFEDWILSHNTKELLFINQDANIRNKVAKDVFKYIQEAEKQSLIDKYNEFIIRTSALKAEFKTDRLKEIVGSLVSQAQEELENIKHIEVMTEDEKDQFEYTLRNLGVYYSQCESANQ
Question: Which “cleavage of polyclonal porcine IgG (32 kDa degradation product)” value [5] does the source give for B2 here?
Answer: No degradation product was observed

Question: What about the “cleavage of polyclonal horse IgG” value [7] of the same molecule?
Answer: cleaved

Question: What about the “cleavage of polyclonal cow IgG” value [8] of the same molecule?
Answer: No degradation product was observed

Question: What about the “cleavage of polyclonal mouse IgG” value [9] of the same molecule?
Answer: No degradation product was observed

Question: And the “cleavage of polyclonal goat IgG” value [10]?
Answer: No degradation product was observed

Question: And the “cleavage of IgG in equine serum” value [14]?
Answer: cleaved IgG in equine serum

Question: What about the “immunoglobulin specificity of the IgG degrading cysteine protease activity” value [12] of the same molecule?
Answer: specific for equine IgG, and specifically equine IgG7

Question: And the “cleavage of polyclonal rat IgG” value [15]?
Answer: No degradation product was observed

Question: What about the “cleavage of polyclonal rabbit IgG” value [16] of the same molecule?
Answer: No degradation product was observed

Question: And the “cleavage of recombinant equine IgG5” value [17]?
Answer: No degradation product was observed

Question: And the “cleavage of recombinant equine IgG2” value [18]?
Answer: No degradation product was observed

Question: What about the “cleavage of recombinant equine IgG1” value [19] of the same molecule?
Answer: No degradation product was observed

Question: What about the “cleavage of recombinant equine IgG4” value [20] of the same molecule?
Answer: No degradation product was observed

Question: And the “cleavage of recombinant equine IgG3” value [21]?
Answer: No degradation product was observed

Question: And the “cleavage of recombinant equine IgG7 (32 kDa degradation product)” value [22]?
Answer: cleaved

Question: What about the “cleavage of recombinant equine IgG6” value [23] of the same molecule?
Answer: No degradation product was observed

Question: What about the “cleavage of polyclonal human IgG (32 kDa degradation product)” value [13] of the same molecule?
Answer: No degradation product was observed

— patent publication US12006530B2, “Streptococcal proteases” (priority 2016, dated 2024)
